Target: the molecule itself
Assay: SEC; SEC-cleaned No TAG hHv1 injected at several concentrations on an ENrich SEC 650 column in Buffer-H2 (50 mM Tris, 150 mM NaCl, 12 mM Anz3-12, pH 8.0); compared with a run in denaturing buffer (50 mM Tris, pH 8.0, 150 mM NaCl, 0.2% SDS); Ex/Em = 280/350 nm

B1: hHv1-Cysless (His-EK-hHv1-C107A-C249A), human voltage-gated proton channel (natural protein, UniProt Q96D96 1-273, looked up)
chain: MATWDEKAVTRRAKVAPAERMSKFLRHFTVVGDDYHAWNINYKKWENEEEEEEEEQPPPTPVSGEEGRAAAPDVAPAPGPAPRAPLDFRGMLRKLFSSHRFQVIIIALVVLDALLVLAELILDLKIIQPDKNNYAAMVFHYMSITILVFFMMEIIFKLFVFRLEFFHHKFEILDAVVVVVSFILDIVLLFQEHQFEALGLLILLRLWRVARIINGIIISVKTRSERQLLRLKQMNVQLAAKIQHLEFSASEKEQEIERLNKLLRQHGLLGEVN
notes: human voltage-gated proton channel (hHv1), full-length, with C107A and C249A (Cysless); Construct name His-EK-hHv1 in pET15-b; 'EK' between the His tag and hHv1 is probably an enterokinase site (surmised); no cleavage step is described; also called No TAG; control; source: E. coli BL21-Gold(DE3), purified (Ni-NTA in Anzergent 3-12, FSEC)
  stoichiometry N: 2
